“And” between values parts separate entries of the source, which are not always exact repeats. Equal values may be shown once. Numbered stars: 1 amine (or outer) side, 2 acyl side, 3 side chain; on linkers, the order of the positions; unused ones are H or OH. Bridge positions count the residues as written; N and C are the ends. Square brackets hold non-standard residues; d marks the D form. * marks the point of attachment. DOTA = O=C(O)CN1CCN(CC(=O)O)CCN(CC(=O)*)CCN(CC(=O)O)CC1; Pro(trans-4-F) = O=C(O)[C@@H]1C[C@@H](F)CN1; Phe(4-Cl) = N[C@@H](Cc1ccc(Cl)cc1)C(=O)O; Phe(2-Cl) = N[C@@H](Cc1ccccc1Cl)C(=O)O; 2Nal = N[C@@H](Cc1ccc2ccccc2c1)C(=O)O; mXylylene = c1cc(C[*:1])cc(C[*:2])c1; 4Amb = NCc1ccc(C(=O)O)cc1; Nle = CCCC[C@H](N)C(=O)O; Hexanoyl = CCCCCC(=O)*; Phb = not defined here; Mpa = O=C(O)CCS; Sar = CNCC(=O)O
B1: Hex-[Cys(3MeBn)-Pro-Pro-Thr-Glu-Phe-Cys]-Pamb-Arg-NH2 (peptide)
peptide: Hexanoyl-CPPTEFC[4Amb]R-NH2
modifications: linker 1-7 via mXylylene
SMILES: CCCCCC(=O)N[C@H]1CSCc2cccc(c2)CSC[C@@H](C(=O)NCc2ccc(C(=O)N[C@@H](CCCNC(=N)N)C(N)=O)cc2)NC(=O)[C@H](Cc2ccccc2)NC(=O)[C@H](CCC(=O)O)NC(=O)[C@H]([C@@H](C)O)NC(=O)[C@@H]2CCCN2C(=O)[C@@H]2CCCN2C1=O
notes: also called 3BP-3303
B2: Hex-[Cys(3MeBn)-Pro-4Tfp-Thr-Glu-Phe-Cys]-NH2 (peptide)
peptide: Hexanoyl-CP[Pro(trans-4-F)]TEFC-NH2
modifications: linker 1-7 via mXylylene
SMILES: CCCCCC(=O)N[C@H]1CSCc2cccc(c2)CSC[C@@H](C(N)=O)NC(=O)[C@H](Cc2ccccc2)NC(=O)[C@H](CCC(=O)O)NC(=O)[C@H]([C@@H](C)O)NC(=O)[C@@H]2C[C@@H](F)CN2C(=O)[C@@H]2CCCN2C1=O
notes: also called 3BP-3352
B3: DOTA-Nle-[Cys(3MeBn)-Pro-Pro-Thr-Glu-Phe-Cys]-Asp-His-Phe-Arg-Asp-NH2 (peptide)
peptide: {DOTA}-[Nle]CPPTEFCDHFRD-NH2
modifications: linker 2-8 via mXylylene
SMILES: CCCC[C@H](NC(=O)CN1CCN(CC(=O)O)CCN(CC(=O)O)CCN(CC(=O)O)CC1)C(=O)N[C@H]1CSCc2cccc(c2)CSC[C@@H](C(=O)N[C@@H](CC(=O)O)C(=O)N[C@@H](Cc2c[nH]cn2)C(=O)N[C@@H](Cc2ccccc2)C(=O)N[C@@H](CCCNC(=N)N)C(=O)N[C@@H](CC(=O)O)C(N)=O)NC(=O)[C@H](Cc2ccccc2)NC(=O)[C@H](CCC(=O)O)NC(=O)[C@H]([C@@H](C)O)NC(=O)[C@@H]2CCCN2C(=O)[C@@H]2CCCN2C1=O
notes: also called 3BP-3088
B4: Phb-[Cys(3MeBn)-Pro-Pro-Thr-Gln-Phe-Cys]-Asp-NH2 (peptide)
peptide: Phb-CPPTQFCD-NH2
modifications: linker 1-7 via mXylylene; reading uncertain; also: printed as Phb-[Cys(3MeBn)-Pro-Pro-Thr-Gln-Phe-Cys]-Asp-NH2
notes: also called 3BP-3418
B5: Hex-[Cys(3MeBn)-Nmg-Pro-Thr-Glu-Phe-Cys]-NH2 (peptide)
peptide: Hexanoyl-C[Sar]PTEFC-NH2
modifications: linker 1-7 via mXylylene
SMILES: CCCCCC(=O)N[C@H]1CSCc2cccc(c2)CSC[C@@H](C(N)=O)NC(=O)[C@H](Cc2ccccc2)NC(=O)[C@H](CCC(=O)O)NC(=O)[C@H]([C@@H](C)O)NC(=O)[C@@H]2CCCN2C(=O)CN(C)C1=O
notes: also called 3BP-3347
B6: Ac-Met-[Cys(3MeBn)-Pro-Pro-Thr-Glu-phe-Cys]-Asp-His-Phe-Arg-Asp-NH2 (peptide)
peptide: Ac-MCPPTE[dF]CDHFRD-NH2
modifications: linker 2-8 via mXylylene
SMILES: CSCC[C@H](NC(C)=O)C(=O)N[C@H]1CSCc2cccc(c2)CSC[C@@H](C(=O)N[C@@H](CC(=O)O)C(=O)N[C@@H](Cc2c[nH]cn2)C(=O)N[C@@H](Cc2ccccc2)C(=O)N[C@@H](CCCNC(=N)N)C(=O)N[C@@H](CC(=O)O)C(N)=O)NC(=O)[C@@H](Cc2ccccc2)NC(=O)[C@H](CCC(=O)O)NC(=O)[C@H]([C@@H](C)O)NC(=O)[C@@H]2CCCN2C(=O)[C@@H]2CCCN2C1=O
notes: also called 3BP-3180
B7: [3MeBn-Spa-Pro-Pro-Thr-Gln-Phe-Cys]-Asp-NH2 (peptide)
peptide: [Mpa]PPTQFCD-NH2
modifications: linker 1-7 via mXylylene
SMILES: C[C@@H](O)[C@@H]1NC(=O)[C@@H]2CCCN2C(=O)[C@@H]2CCCN2C(=O)CCSCc2cccc(c2)CSC[C@@H](C(=O)N[C@@H](CC(=O)O)C(N)=O)NC(=O)[C@H](Cc2ccccc2)NC(=O)[C@H](CCC(N)=O)NC1=O
notes: also called 3BP-3419
B8: Hex-[Cys(3MeBn)-Pro-Pro-Thr-Glu-Ocf-Cys]-NH2 (peptide)
peptide: Hexanoyl-CPPTE[Phe(2-Cl)]C-NH2
modifications: linker 1-7 via mXylylene
SMILES: CCCCCC(=O)N[C@H]1CSCc2cccc(c2)CSC[C@@H](C(N)=O)NC(=O)[C@H](Cc2ccccc2Cl)NC(=O)[C@H](CCC(=O)O)NC(=O)[C@H]([C@@H](C)O)NC(=O)[C@@H]2CCCN2C(=O)[C@@H]2CCCN2C1=O
notes: also called 3BP-3368
B9: DOTA-Met-[Cys(3MeBn)-Pro-Pro-Thr-Glu-Phe-Cys]-Asp-His-Phe-Arg-Asp-NH2 (peptide)
peptide: {DOTA}-MCPPTEFCDHFRD-NH2
modifications: linker 2-8 via mXylylene
SMILES: CSCC[C@H](NC(=O)CN1CCN(CC(=O)O)CCN(CC(=O)O)CCN(CC(=O)O)CC1)C(=O)N[C@H]1CSCc2cccc(c2)CSC[C@@H](C(=O)N[C@@H](CC(=O)O)C(=O)N[C@@H](Cc2c[nH]cn2)C(=O)N[C@@H](Cc2ccccc2)C(=O)N[C@@H](CCCNC(=N)N)C(=O)N[C@@H](CC(=O)O)C(N)=O)NC(=O)[C@H](Cc2ccccc2)NC(=O)[C@H](CCC(=O)O)NC(=O)[C@H]([C@@H](C)O)NC(=O)[C@@H]2CCCN2C(=O)[C@@H]2CCCN2C1=O
B10: Ac-Met-[Cys(3MeBn)-pro-Pro-Thr-Glu-Phe-Cys]-Asp-His-Phe-Arg-Asp-NH2 (peptide)
peptide: Ac-MC[dP]PTEFCDHFRD-NH2
modifications: linker 2-8 via mXylylene
SMILES: CSCC[C@H](NC(C)=O)C(=O)N[C@H]1CSCc2cccc(c2)CSC[C@@H](C(=O)N[C@@H](CC(=O)O)C(=O)N[C@@H](Cc2c[nH]cn2)C(=O)N[C@@H](Cc2ccccc2)C(=O)N[C@@H](CCCNC(=N)N)C(=O)N[C@@H](CC(=O)O)C(N)=O)NC(=O)[C@H](Cc2ccccc2)NC(=O)[C@H](CCC(=O)O)NC(=O)[C@H]([C@@H](C)O)NC(=O)[C@@H]2CCCN2C(=O)[C@H]2CCCN2C1=O
notes: also called 3BP-3176
B11: Hex-[Cys(3MeBn)-Gly-Pro-Thr-Glu-Phe-Cys]-NH2 (peptide)
peptide: Hexanoyl-CGPTEFC-NH2
modifications: linker 1-7 via mXylylene
SMILES: CCCCCC(=O)N[C@H]1CSCc2cccc(c2)CSC[C@@H](C(N)=O)NC(=O)[C@H](Cc2ccccc2)NC(=O)[C@H](CCC(=O)O)NC(=O)[C@H]([C@@H](C)O)NC(=O)[C@@H]2CCCN2C(=O)CNC1=O
notes: also called 3BP-3345
B12: Hex-[Cys(3MeBn)-Pro-Pro-Thr-Glu-Phe-Cys]-NH2 (peptide)
peptide: Hexanoyl-CPPTEFC-NH2
modifications: linker 1-7 via mXylylene
SMILES: CCCCCC(=O)N[C@H]1CSCc2cccc(c2)CSC[C@@H](C(N)=O)NC(=O)[C@H](Cc2ccccc2)NC(=O)[C@H](CCC(=O)O)NC(=O)[C@H]([C@@H](C)O)NC(=O)[C@@H]2CCCN2C(=O)[C@@H]2CCCN2C1=O
notes: also called 3BP-3287
B13: DOTA-[Cys(3MeBn)-Pro-Pro-Thr-Glu-Phe-Cys]-Asp-His-Phe-Arg-Asp-NH2 (peptide)
peptide: {DOTA}-CPPTEFCDHFRD-NH2
modifications: linker 1-7 via mXylylene
SMILES: C[C@@H](O)[C@@H]1NC(=O)[C@@H]2CCCN2C(=O)[C@@H]2CCCN2C(=O)[C@@H](NC(=O)CN2CCN(CC(=O)O)CCN(CC(=O)O)CCN(CC(=O)O)CC2)CSCc2cccc(c2)CSC[C@@H](C(=O)N[C@@H](CC(=O)O)C(=O)N[C@@H](Cc2c[nH]cn2)C(=O)N[C@@H](Cc2ccccc2)C(=O)N[C@@H](CCCNC(=N)N)C(=O)N[C@@H](CC(=O)O)C(N)=O)NC(=O)[C@H](Cc2ccccc2)NC(=O)[C@H](CCC(=O)O)NC1=O
notes: also called 3BP-3174
B14: Hex-[Cys(3MeBn)-Pro-Pro-Thr-Glu-2Ni-Cys]-NH2 (peptide)
peptide: Hexanoyl-CPPTE[2Nal]C-NH2
modifications: linker 1-7 via mXylylene
SMILES: CCCCCC(=O)N[C@H]1CSCc2cccc(c2)CSC[C@@H](C(N)=O)NC(=O)[C@H](Cc2ccc3ccccc3c2)NC(=O)[C@H](CCC(=O)O)NC(=O)[C@H]([C@@H](C)O)NC(=O)[C@@H]2CCCN2C(=O)[C@@H]2CCCN2C1=O
notes: also called 3BP-3362
B15: Ac-Met-[Cys(3MeBn)-Pro-Pro-Thr-Glu-Phe-Cys]-Asp-His-Phe-Ala-Asp-NH2 (peptide)
peptide: Ac-MCPPTEFCDHFAD-NH2
modifications: linker 2-8 via mXylylene
SMILES: CSCC[C@H](NC(C)=O)C(=O)N[C@H]1CSCc2cccc(c2)CSC[C@@H](C(=O)N[C@@H](CC(=O)O)C(=O)N[C@@H](Cc2c[nH]cn2)C(=O)N[C@@H](Cc2ccccc2)C(=O)N[C@@H](C)C(=O)N[C@@H](CC(=O)O)C(N)=O)NC(=O)[C@H](Cc2ccccc2)NC(=O)[C@H](CCC(=O)O)NC(=O)[C@H]([C@@H](C)O)NC(=O)[C@@H]2CCCN2C(=O)[C@@H]2CCCN2C1=O
notes: also called 3BP-3197
B16: Ac-Met-[Cys(3MeBn)-ala-Pro-Thr-Glu-Phe-Cys]-Asp-His-Phe-Arg-Asp-NH2 (peptide)
peptide: Ac-MC[dA]PTEFCDHFRD-NH2
modifications: linker 2-8 via mXylylene
SMILES: CSCC[C@H](NC(C)=O)C(=O)N[C@H]1CSCc2cccc(c2)CSC[C@@H](C(=O)N[C@@H](CC(=O)O)C(=O)N[C@@H](Cc2c[nH]cn2)C(=O)N[C@@H](Cc2ccccc2)C(=O)N[C@@H](CCCNC(=N)N)C(=O)N[C@@H](CC(=O)O)C(N)=O)NC(=O)[C@H](Cc2ccccc2)NC(=O)[C@H](CCC(=O)O)NC(=O)[C@H]([C@@H](C)O)NC(=O)[C@@H]2CCCN2C(=O)[C@@H](C)NC1=O
notes: also called 3BP-3215
B17: Hex-[Cys(3MeBn)-Pro-Pro-Thr-Glu-Pcf-Cys]-NH2 (peptide)
peptide: Hexanoyl-CPPTE[Phe(4-Cl)]C-NH2
modifications: linker 1-7 via mXylylene
SMILES: CCCCCC(=O)N[C@H]1CSCc2cccc(c2)CSC[C@@H](C(N)=O)NC(=O)[C@H](Cc2ccc(Cl)cc2)NC(=O)[C@H](CCC(=O)O)NC(=O)[C@H]([C@@H](C)O)NC(=O)[C@@H]2CCCN2C(=O)[C@@H]2CCCN2C1=O
notes: also called 3BP-3369

What follows are binders tested against T1, fibroblast activation protein (FAP) on FAP-expressing human WI-38 fibroblasts (human, UniProt Q12884 1-760) (assay: competitive FACS, WI-38 cells, vs Cy5 tracer m3; B = pIC50 7.1-8.0).
T1 construct: also called human FAP

Row | Binder | pIC50 Category (FACS)
1 | B1 | 7.1 pIC50 and 8 pIC50

The binders below were run against T1, fibroblast activation protein (FAP) on … (assay: competitive FACS, WI-38 cells, vs Cy5 tracer m3; C = pIC50 6.1-7.0).

Row | Binder | pIC50 Category (FACS)
2 | B2 | 6.1 pIC50 and 7 pIC50
3 | B3 | 6.1 pIC50 and 7 pIC50
4 | B4 | 6.1 pIC50 and 7 pIC50
5 | B5 | 6.1 pIC50 and 7 pIC50
6 | B6 | 6.1 pIC50 and 7 pIC50
7 | B7 | 6.1 pIC50 and 7 pIC50
8 | B8 | 6.1 pIC50 and 7 pIC50
9 | B9 | 6.1 pIC50 and 7 pIC50
10 | B10 | 6.1 pIC50 and 7 pIC50
11 | B11 | 6.1 pIC50 and 7 pIC50
12 | B12 | 6.1 pIC50 and 7 pIC50
13 | B13 | 6.1 pIC50 and 7 pIC50
14 | B14 | 6.1 pIC50 and 7 pIC50
15 | B15 | 6.1 pIC50 and 7 pIC50
16 | B16 | 6.1 pIC50 and 7 pIC50
17 | B17 | 6.1 pIC50 and 7 pIC50

What follows are binders tested against Recombinant human FAP (R&D systems, #3715-SE) (human, UniProt Q12884 26-760) (assay: cell-based or functional assay).

Row | Binder | pIC50 Category (Activity)
18 | B2 | 7.1 pIC50 and 8 pIC50
19 | B3 | 6.1 pIC50 and 7 pIC50
20 | B4 | 6.1 pIC50 and 7 pIC50
21 | B5 | 7.1 pIC50 and 8 pIC50
22 | B6 | 6.1 pIC50 and 7 pIC50
23 | B7 | 6.1 pIC50 and 7 pIC50
24 | B8 | 7.1 pIC50 and 8 pIC50
25 | B9 | 6.1 pIC50 and 7 pIC50
26 | B10 | 6.1 pIC50 and 7 pIC50
27 | B11 | 7.1 pIC50 and 8 pIC50
28 | B12 | 7.1 pIC50 and 8 pIC50
29 | B13 | 6.1 pIC50 and 7 pIC50
30 | B14 | 6.1 pIC50 and 7 pIC50
31 | B15 | 6.1 pIC50 and 7 pIC50
32 | B16 | 6.1 pIC50 and 7 pIC50
33 | B1 | > 8 pIC50
34 | B17 | 6.1 pIC50 and 7 pIC50

— patent US20230212549A1 (3B PHARMACEUTICALS, published 2023)
